From the RNAGym collection of RNA variant scans (doi:10.7554/elife.80360)

B1: CPEB3 Ribozyme (parent)
chain: GGGGGCCACAGCAGAAGCGUUCACGUCGCGGCCCCUGUCAGAUUCUGGUGAAUCUGCGAAUUCUGCUGU

Variants of: B1
Test: self-cleavage, relative activity (ratio to wild type); higher = more cleavage; co-transcriptional

Variant | self-cleavage
GGGGGCCACAGCAGAAGCGUUCACGUCGAGGCGCCUGUCAGAUUCUGGUGAAUCUGCGAAUUCUGCUGU | 0.281
GGGGGCCACAGCAGAAGCGUUCACGUCGAGGCUCCUGUCAGAUUCUGGUGAAUCUGCGAAUUCUGCUGU | 0.594
GGGGGCCACAGCAGAAGCGUUCACGUCGGGGCCCCUGUCAGAUUCCGGUGAAUCUGCGAAUUCUGCUGU | 0.473
GGGGGCCACAGCAGAAGCGUUCACGUCGGGGCCCCUGUCAGAUUCUGGUGAAUCUGCGAAUUCUGGUGU | 0.369
GGGGGCCACAGCAGAAGCGUUCACGUCGGGGUCCCUGUCAGAUUCUGGUGAAUCUGCGAAUUCUGCUGU | 0.313
GGGGGCCACAGCAGAAGCGUUCACGUCGGGGCCCCUGUCAGAUUCUGGUGAAUCUGCGAAUUCUGCUGG | 0.703
GGGGGCCACAGCAGAAGCGUUCACGUCGAGGCCCCUGUCAGAUUCUGGUGAAUCUGCCAAUUCUGCUGU | 0.685
GGGGGCCACAGCAGAAGCGUUCACGUCGAGGCCCCUGUCAGAUUCUGGUGAAUCUGCUAAUUCUGCUGU | 0.795
GGGGGCCACAGCAGAAGCGUUCACGUCGGGGCCCCUGUCAGAUUCUGGUGAAUCUGCGGAUUCUGCUGU | 0.675
GGGGGCCACAGCAGAAGCGUUCACGUCGGGGCCCCUGUCAGAUUCUGGUGAAUCUGCGAAUUCAGCUGU | 0.191
GGGGGCCACAGCAGAAGCGUUCACGUCGAGGCCCCUGUCAGAUUCUGGUGAAUCGGCGAAUUCUGCUGU | 0.323
GGGGGCCACAGCAGAAGCGUUCACGUCGAGGCCCCUGUCAGAUUCUGGAGAAUCUGCGAAUUCUGCUGU | 0.805
GGGGGCCACAGCAGAAGCGUUCACGUCGAGGCCCCUGUCAGAUUCUGGUGAAUCUGCGAAUUCUGCUAU | 0.914
GGGGGCCACAGCAGAAGCGUUCACGUCGGGGCCCCUGUCAGCUUCUGGUGAAUCUGCGAAUUCUGCUGU | 0.347
GGGGGCCACAGCAGAAGCGUUCACGUCGAGGCCCCUGUCAGAUUCUGGUCAAUCUGCGAAUUCUGCUGU | 0.71
GGGGGCCACAGCAGAAGCGUUCACGUCGAGGCCCCUGUCAGAUCCUGGUGAAUCUGCGAAUUCUGCUGU | 0.515
GGGGGCCACAGCAGAAGCGUUCACGUCGAGGCCCCUGUCAGAUGCUGGUGAAUCUGCGAAUUCUGCUGU | 0.521
GGGGGCCACAGCAGAAGCGUUCACGUCGAGGCCCCUGUCAGAUUGUGGUGAAUCUGCGAAUUCUGCUGU | 0.605
GGGGGCCACAGCAGAAGCGUUCACGUCGAGGCCCCUGUCAGAUUAUGGUGAAUCUGCGAAUUCUGCUGU | 0.635
GGGGGCCACAGCAGAAGCGUUCACGUCGGGGCUCCUGUCAGAUUCUGGUGAAUCUGCGAAUUCUGCUGU | 0.558
GGGGGCCACAGCAGAAGCGUUCACGUCGAGGCCCCUGUCAGAUUCUGGUGAAUCUGCGAACUCUGCUGU | 0.374
GGGGGCCACAGCAGAAGCGUUCACGUCGAGGCCCCUGUCAGAUUCUGGUGAAUCUGCGAAGUCUGCUGU | 0.613
GGGGGCCACAGCAGAAGCGUUCACGUCGGGGCCCCUGUCAGAUUCUGGUGAAUUUGCGAAUUCUGCUGU | 0.545
GGGGGCCACAGCAGAAGCGUUCACGUCGGGGCCCCUGUCAGAUUCUGGUGAAUGUGCGAAUUCUGCUGU | 0.246
GGGGGCCACAGCAGAAGCGUUCACGUCGAGGCCCCUAUCAGAUUCUGGUGAAUCUGCGAAUUCUGCUGU | 0.207
GGGGGCCACAGCAGAAGCGUUCACGUCGAGGCCCAUGUCAGAUUCUGGUGAAUCUGCGAAUUCUGCUGU | 0.157

Variant | self-cleavage
GGGGGCCACAGCAGAAGCGUUCACGUCGGGGCCCCUGUCAGAUUCUGGUGAAUCUGCGAAUUCUGCAGU | 0.517
GGGGGCCACAGCAGAAGCGUUCACGUCGGGGCCCCUGUCAGAUUCUGGUGAAUCUGCGAAUUCUGCGGU | 0.482
GGGGGCCACAGCAGAAGCGUUCACGUCGGGGCCCCUGUCAGAUUCUGGUGAAUCUGCGAAUUCUGCCGU | 0.47
GGGGGCCACAGCAGAAGCGUUCACGUCGGGGCCCCUGUCAGAUUCUGGUGACUCUGCGAAUUCUGCUGU | 0.467
GGGGGCCACAGCAGAAGCGUUCACGUCGGGGCCCCCGUCAGAUUCUGGUGAAUCUGCGAAUUCUGCUGU | 0.286
GGGGGCCACAGCAGAAGCGUUCACGUCGGGCCCCCUGUCAGAUUCUGGUGAAUCUGCGAAUUCUGCUGU | 0.13
GGGGGCCACAGCAGAAGCGUUCACGUCGGGGCCCCUGUCAGAUUUUGGUGAAUCUGCGAAUUCUGCUGU | 0.601
GGGGGCCACAGCAGAAGCGUUCACGUCGAGGCCCCUGUCAGAUUCUGGUGAAUCUGCGAAUUCUGCUGA | 0.91
GGGGGCCACAGCAGAAGCGUUCACGUCGAGGCCCCUGUCAGAUUCUGGUGAAUCUGCGAAUUCUGCUGG | 0.864
GGGGGCCACAGCAGAAGCGUUCACGUCGGGGCCCCUGUCAGAUUCUGGUGAAUCUGCGAAUUCUGCUUU | 0.8
GGGGGCCACAGCAGAAGCGUUCACGUCGAGGCCCCUGUCAGAUUCUGGUGAAUCUGCGAAUUUUGCUGU | 0.465
GGGGGCCACAGCAGAAGCGUUCACGUCGAGGCCCCUGUCAGAUUCUGGUGAAUCUGCGAAUUCUGAUGU | 0.334
GGGGGCCACAGCAGAAGCGUUCACGUCGAGGCCCCUGUCAGAUUCUGGUGAAUGUGCGAAUUCUGCUGU | 0.299
GGGGGCCACAGCAGAAGCGUUCACGUCGAGGCCCCUGUCAGAUUCUGGUGAAUUUGCGAAUUCUGCUGU | 0.682
GGGGGCCACAGCAGAAGCGUUCACGUCGGGGCCCCUGUCAGAUUCUGGUCAAUCUGCGAAUUCUGCUGU | 0.457
GGGGGCCACAGCAGAAGCGUUCACGUCGGGGCCACUGUCAGAUUCUGGUGAAUCUGCGAAUUCUGCUGU | 0.227
GGGGGCCACAGCAGAAGCGUUCACGUCGGGGCCUCUGUCAGAUUCUGGUGAAUCUGCGAAUUCUGCUGU | 0.495
GGGGGCCACAGCAGAAGCGUUCACGUCGGGGCCCCUGUGAGAUUCUGGUGAAUCUGCGAAUUCUGCUGU | 0.267
GGGGGCCACAGCAGAAGCGUUCACGUCGGGGCCCCUGUUAGAUUCUGGUGAAUCUGCGAAUUCUGCUGU | 0.251
GGGGGCCACAGCAGAAGCGUUCACGUCGGGGCCCCUGUCAGAUUCUGGUGAAUCUGCAAAUUCUGCUGU | 0.327
GGGGGCCACAGCAGAAGCGUUCACGUCGAGGCCCCUGUCAGAUUCCGGUGAAUCUGCGAAUUCUGCUGU | 0.68
GGGGGCCACAGCAGAAGCGUUCACGUCGAGGCCCCUGUCAGAUUCAGGUGAAUCUGCGAAUUCUGCUGU | 0.845
GGGGGCCACAGCAGAAGCGUUCACGUCGGGGCCCCUGUCAGAUUCUGGUGAAUCUGCGAAUUGUGCUGU | 0.183
GGGGGCCACAGCAGAAGCGUUCACGUCGAGGCCCCUGUCAGAUUCUGGUGAAUCUCCGAAUUCUGCUGU | 0.297
GGGGGCCACAGCAGAAGCGUUCACGUCGAGGCCCCUGUCAGAUUCUGGUGAAUCUACGAAUUCUGCUGU | 0.492
GGGGGCCACAGCAGAAGCGUUCACGUCGAGGCCCCUGUCAGAUUCUGGUGAAUCUUCGAAUUCUGCUGU | 0.367

Variant | self-cleavage
GGGGGCCACAGCAGAAGCGUUCACGUCGGUGCCCCUGUCAGAUUCUGGUGAAUCUGCGAAUUCUGCUGU | 0.219
GGGGGCCACAGCAGAAGCGUUCACGUCGAGGCCCCUGUCAGAUUCUGGUGAAUCUGUGAAUUCUGCUGU | 0.247
GGGGGCCACAGCAGAAGCGUUCACGUCGGGGCCCCUAUCAGAUUCUGGUGAAUCUGCGAAUUCUGCUGU | 0.178
GGGGGCCACAGCAGAAGCGUUCACGUCGGGGCCCCUCUCAGAUUCUGGUGAAUCUGCGAAUUCUGCUGU | 0.169
GGGGGCCACAGCAGAAGCGUUCACGUCGAGGCCCCGGUCAGAUUCUGGUGAAUCUGCGAAUUCUGCUGU | 0.179
GGGGGCCACAGCAGAAGCGUUCACGUCGGGGCCCCUGUCAGACUCUGGUGAAUCUGCGAAUUCUGCUGU | 0.428
GGGGGCCACAGCAGAAGCGUUCACGUCGGGGCCCCUGUCAGAAUCUGGUGAAUCUGCGAAUUCUGCUGU | 0.186
GGGGGCCACAGCAGAAGCGUUCACGUCGAGGCCCCUGUCAAAUUCUGGUGAAUCUGCGAAUUCUGCUGU | 0.215
GGGGGCCACAGCAGAAGCGUUCACGUCGAGGCCCCUGUCAUAUUCUGGUGAAUCUGCGAAUUCUGCUGU | 0.296
GGGGGCCACAGCAGAAGCGUUCACGUCGAGGCCCCUGUCAGAUUCUAGUGAAUCUGCGAAUUCUGCUGU | 0.796
GGGGGCCACAGCAGAAGCGUUCACGUCGGGGCCCCUGACAGAUUCUGGUGAAUCUGCGAAUUCUGCUGU | 0.316
GGGGGCCACAGCAGAAGCGUUCACGUCGGGGCCCCUGUCAGAUUCUGGCGAAUCUGCGAAUUCUGCUGU | 0.544
GGGGGCCACAGCAGAAGCGUUCACGUCGGGGCCCCUGUCAGAUUCUGGUGCAUCUGCGAAUUCUGCUGU | 0.484
GGGGGCCACAGCAGAAGCGUUCACGUCGGGGCCCCUGUCAGAUUCUGGUGGAUCUGCGAAUUCUGCUGU | 0.541
GGGGGCCACAGCAGAAGCGUUCACGUCGGGGCCCCUGUCAGAUUCUGGUGUAUCUGCGAAUUCUGCUGU | 0.439
GGGGGCCACAGCAGAAGCGUUCACGUCGGGGCCCCUGUCAGAUUCUGGUGAAUCUGCGAACUCUGCUGU | 0.221
GGGGGCCACAGCAGAAGCGUUCACGUCGGGGCCCCUGUCAGAUUCUGGUGAAUCUGCGAAGUCUGCUGU | 0.348
GGGGGCCACAGCAGAAGCGUUCACGUCGAGGCCCCUGUCAGAUUCUGGUGAAUCUGCGAAUUCUGCGGU | 0.79
GGGGGCCACAGCAGAAGCGUUCACGUCGAGGACCCUGUCAGAUUCUGGUGAAUCUGCGAAUUCUGCUGU | 0.297
GGGGGCCACAGCAGAAGCGUUCACGUCGGGGCCCCUGUCAUAUUCUGGUGAAUCUGCGAAUUCUGCUGU | 0.21
GGGGGCCACAGCAGAAGCGUUCACGUCGGGGCCCCUGUCACAUUCUGGUGAAUCUGCGAAUUCUGCUGU | 0.173
GGGGGCCACAGCAGAAGCGUUCACGUCGGGGCCCCUGUCAGAUGCUGGUGAAUCUGCGAAUUCUGCUGU | 0.361
GGGGGCCACAGCAGAAGCGUUCACGUCGAGGCCCCUGUCAGAUUCUGGUGAAUCUGCGAAUGCUGCUGU | 0.269
GGGGGCCACAGCAGAAGCGUUCACGUCGAGGCCCCUGUCAGAGUCUGGUGAAUCUGCGAAUUCUGCUGU | 0.364
GGGGGCCACAGCAGAAGCGUUCACGUCGAGGCCCCUGUCAGACUCUGGUGAAUCUGCGAAUUCUGCUGU | 0.465
GGGGGCCACAGCAGAAGCGUUCACGUCGAGGCCCCUGUAAGAUUCUGGUGAAUCUGCGAAUUCUGCUGU | 0.327
